From paper PMC4995097, “Talin-KANK1 interaction controls the recruitment of cortical microtubule stabilizing complexes to focal adhesions” (eLife, 2016)

Columns and labels:
[1] = molecular target: T1, talin1 R7-R8 (murine talin1 residues 1357–1653) (mouse, UniProt P26039 1357-1653); assay: fluorescence polarisation; fixed 0.5 μM BODIPY-labelled KANK peptide, increasing talin R7-R8, PBS, 100 μl, room temperature, triplicate; one site total and non-specific binding model; details: both partners purified
T1 construct: talin1, mouse, residues 1357-1653 (R7-R8); 15N-labelled for NMR, unlabelled for fluorescence polarisation; Vector pet151-TOPO; also called talin R7-R8; wild type R7-R8
T1 sequence (P26039 1357-1653): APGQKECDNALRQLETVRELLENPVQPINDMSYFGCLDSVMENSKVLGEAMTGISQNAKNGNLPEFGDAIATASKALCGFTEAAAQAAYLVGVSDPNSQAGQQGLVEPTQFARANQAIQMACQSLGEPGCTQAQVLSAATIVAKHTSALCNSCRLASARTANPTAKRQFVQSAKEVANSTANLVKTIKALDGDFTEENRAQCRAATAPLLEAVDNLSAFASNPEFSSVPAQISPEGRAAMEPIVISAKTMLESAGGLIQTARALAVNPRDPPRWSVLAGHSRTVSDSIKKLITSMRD

[2] = molecular target: T2, talin1 R7-R8 S1641E (mouse, UniProt P26039 1357-1653, S1641E); assay: as above; details: both partners purified
T2 construct: talin1, mouse, R7-R8 (limits as the wild type: 1357-1653) with S1641E; also called S1641E mutant; source: gene synthesized by GeneArt
T2 sequence (P26039 1357-1653 S1641E): as the sequence (P26039 1357-1653) above, with S285E counted along it

Row | binding result [1] | binding result [2] | Binder
1 | binds | binds | PYFVETPYGFQLDLDFVKYVDDIQKGNTIKKC (BODIPY TMR dye coupled via the carboxy terminal cysteine, KANK1, human, residues 30-60; added C-terminal cysteine; also called KANK1(30–60) peptide; source: synthetic peptide (Biomatik), dye-coupled, gel filtered) [BODIPY-labeled KANK1(30–60)C peptide]
2 | binds | – | PYSVETPYGYRLDLDFLKYVDDIEKGHTLRRC (BODIPY TMR dye coupled via the carboxy terminal cysteine, KANK2, residues 31-61; added C-terminal cysteine; source: synthetic peptide (Biomatik), dye-coupled, gel filtered) [BODIPY-labeled KANK2(31–61)C peptide]
